Patent publication US20100204147A1, “Methods For Delivering Thymosin Beta 4, Analogues, Isoforms and Other Derivatives” (REGENERX BIOPHARMACEUTICALS, INC., priority 2003, published 2010)

Tests used:
fibrinogen = biological target: T1, fibrinogen (Homo sapiens, UniProt P02671); assay: Factor XIIIa-mediated incorporation of FITC-labeled thymosin β4 into fibrinogen (spectrophotometric); type: biochemical; settings: fibrinogen 9 μM, thymosin β4 30 μM, factor XIIIa, 4 hours, 37° C.
T1 construct: purchased Enzyme Research Laboratories (South Bend, Ind.)
T1 sequence (P02671 20-644 isoform P02671-2 limits assumed): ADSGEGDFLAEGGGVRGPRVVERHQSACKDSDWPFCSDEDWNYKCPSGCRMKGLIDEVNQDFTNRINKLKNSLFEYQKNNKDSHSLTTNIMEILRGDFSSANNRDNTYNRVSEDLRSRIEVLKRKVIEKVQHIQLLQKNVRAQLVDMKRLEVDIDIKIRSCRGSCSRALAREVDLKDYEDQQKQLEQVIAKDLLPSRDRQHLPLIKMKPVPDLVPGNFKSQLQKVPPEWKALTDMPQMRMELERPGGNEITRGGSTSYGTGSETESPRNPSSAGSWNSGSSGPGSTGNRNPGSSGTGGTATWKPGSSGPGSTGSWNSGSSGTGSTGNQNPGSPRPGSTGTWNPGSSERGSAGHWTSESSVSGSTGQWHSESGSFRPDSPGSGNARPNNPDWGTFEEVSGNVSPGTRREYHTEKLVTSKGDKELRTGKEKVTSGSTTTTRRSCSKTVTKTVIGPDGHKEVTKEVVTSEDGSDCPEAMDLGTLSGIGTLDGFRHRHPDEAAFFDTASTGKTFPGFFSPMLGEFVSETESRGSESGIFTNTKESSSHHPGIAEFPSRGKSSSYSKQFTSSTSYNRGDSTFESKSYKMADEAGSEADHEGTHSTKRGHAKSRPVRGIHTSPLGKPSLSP
T1 sequence (P02675 31-491 partner): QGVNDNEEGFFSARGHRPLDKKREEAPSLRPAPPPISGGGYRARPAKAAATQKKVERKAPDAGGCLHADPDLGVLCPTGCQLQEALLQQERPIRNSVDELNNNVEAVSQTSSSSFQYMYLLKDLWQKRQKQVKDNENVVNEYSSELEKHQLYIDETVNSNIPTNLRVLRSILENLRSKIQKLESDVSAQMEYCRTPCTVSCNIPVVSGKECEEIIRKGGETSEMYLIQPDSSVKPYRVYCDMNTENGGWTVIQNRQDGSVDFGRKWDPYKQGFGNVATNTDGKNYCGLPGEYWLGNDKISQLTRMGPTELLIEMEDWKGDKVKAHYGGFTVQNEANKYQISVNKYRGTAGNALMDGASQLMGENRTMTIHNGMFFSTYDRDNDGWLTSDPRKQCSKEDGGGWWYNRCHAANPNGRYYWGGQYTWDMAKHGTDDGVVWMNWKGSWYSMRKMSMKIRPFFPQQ
T1 sequence (P02679 27-437 isoform P02679-2 partner limits assumed): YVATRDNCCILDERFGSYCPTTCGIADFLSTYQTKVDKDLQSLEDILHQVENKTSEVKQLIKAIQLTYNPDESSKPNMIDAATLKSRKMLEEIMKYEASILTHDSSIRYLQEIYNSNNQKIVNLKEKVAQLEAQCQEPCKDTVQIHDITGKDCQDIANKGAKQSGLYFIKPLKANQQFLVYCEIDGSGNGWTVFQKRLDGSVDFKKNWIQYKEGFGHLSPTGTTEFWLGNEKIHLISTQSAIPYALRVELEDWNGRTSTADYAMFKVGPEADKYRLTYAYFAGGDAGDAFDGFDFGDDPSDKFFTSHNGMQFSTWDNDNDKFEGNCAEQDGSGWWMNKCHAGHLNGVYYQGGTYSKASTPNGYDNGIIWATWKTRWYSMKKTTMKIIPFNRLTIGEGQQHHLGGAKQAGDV
Description: (§1) Reactions of incorporation of FITC-labeled and unlabeled thymosin β4 into fibrinogen and fibrin were performed in Eppendorf tubes containing a mixture of fibrinogen at 3 mg/mL (9 μM) and thymosin β4 or FITC-labeled thymosin β4 at […] (30 μM) in 100 μL TBS with 2.5 mM CaCl2. The reactions were initiated by addition of FXIIIa(Ca) or FXIIIa(Thr) to final concentration of 30 μg/mL. The final concentration of thrombin in the FXIIIa(Thr)-containing mixtures was made at 2.5 NIH u/mL, sufficient to rapidly form fibrin clot which was observed visually. The reactions with FITC-labeled thymosin β4 lasted for 4 hours at 37° C. in the dark and were stopped by heat inactiviation of the enzymes in boiling water for 5 min during fibrinogen and fibrin denatured and precipitated. The pellets were centrifuged and washed 3 times in TBS and then solubilized. The amounts of fibrin(ogen) and FITC-labeled thymosin β4 in the solubilized pellet were determined spectrophotomertrically using absorption molar coefficients E280,1%=15.0 and ε495=72,000 M^−1cm^−1, respectively. To prepare samples with unlabeled thymosin β4 for analysis by SDS-PAGE and Western blot the reaction mixtures at the indicated time were heat-inactivated as above and solubilized by addition of sample buffer (Invitrogen) containing SDS and reducing agent.

fibrin = biological target: T2, fibrin (Homo sapiens, UniProt P02671); assay: Factor XIIIa-mediated incorporation of FITC-labeled thymosin β4 into fibrin (spectrophotometric); type: biochemical; settings: fibrinogen 9 μM, thymosin β4 30 μM, factor XIIIa with thrombin, 4 hours, 37° C.
T2 construct: purchased Enzyme Research Laboratories (South Bend, Ind.); host or cells: fibrin generated in the well or tube from the purchased fibrinogen with bovine thrombin
T2 sequence (P02671 36-629): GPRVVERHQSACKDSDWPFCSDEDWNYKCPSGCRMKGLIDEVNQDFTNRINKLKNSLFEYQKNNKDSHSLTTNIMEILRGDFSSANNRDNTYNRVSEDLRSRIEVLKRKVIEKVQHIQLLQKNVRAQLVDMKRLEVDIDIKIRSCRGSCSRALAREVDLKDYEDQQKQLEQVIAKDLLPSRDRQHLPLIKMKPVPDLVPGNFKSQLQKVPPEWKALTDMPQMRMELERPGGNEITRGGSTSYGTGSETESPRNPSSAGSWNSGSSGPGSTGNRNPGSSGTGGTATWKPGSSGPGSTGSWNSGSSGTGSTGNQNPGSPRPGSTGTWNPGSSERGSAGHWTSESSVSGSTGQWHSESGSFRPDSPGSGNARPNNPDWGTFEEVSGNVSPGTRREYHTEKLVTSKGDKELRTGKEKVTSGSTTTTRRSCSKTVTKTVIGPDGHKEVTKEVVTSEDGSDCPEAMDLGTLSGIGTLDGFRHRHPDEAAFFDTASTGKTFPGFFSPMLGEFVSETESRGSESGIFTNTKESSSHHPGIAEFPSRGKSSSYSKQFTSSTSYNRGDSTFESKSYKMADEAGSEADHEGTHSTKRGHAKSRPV
T2 sequence (P02675 45-491 partner): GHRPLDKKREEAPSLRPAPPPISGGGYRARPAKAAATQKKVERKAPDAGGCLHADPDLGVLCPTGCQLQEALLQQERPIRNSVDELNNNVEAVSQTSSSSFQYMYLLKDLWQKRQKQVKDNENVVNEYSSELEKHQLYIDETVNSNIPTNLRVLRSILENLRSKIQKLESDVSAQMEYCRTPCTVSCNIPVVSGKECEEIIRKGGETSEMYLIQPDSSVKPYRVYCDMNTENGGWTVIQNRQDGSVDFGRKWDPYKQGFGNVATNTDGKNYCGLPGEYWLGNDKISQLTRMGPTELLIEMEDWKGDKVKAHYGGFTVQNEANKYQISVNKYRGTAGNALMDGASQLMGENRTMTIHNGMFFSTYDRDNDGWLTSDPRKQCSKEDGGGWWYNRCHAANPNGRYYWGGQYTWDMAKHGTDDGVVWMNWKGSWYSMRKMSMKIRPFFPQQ
T2 sequence (P02679 27-437 isoform P02679-2 partner): T1 sequence (P02679 27-437 isoform P02679-2 partner limits assumed)
Description: as §1

FITC-thymosin β4: Fluorescence labeled thymosin β4 prepared by reaction with fluorescein isothiocyanate; 0.9 mole of FITC per mole of thymosin β4 [reference compound]
degree of incorporation into fibrinogen (fibrinogen): about 0.2 moles per mole | degree of incorporation into fibrin (fibrin): ~0.4 moles per mole
